Substitutions are numbered along the chain they refer to. In names and notes the source's numbering stands.
Legend:
[1] = target: His6-tagged integrin α2A domain, wild type (human) (UniProt P17301); experiment: ELISA; α2A wt or mutants (10 μg/ml) captured on immobilised mAb JA218 (2.5 μg/ml), TBS/Mg; titrated with RC; bound RC fixed and detected with rabbit RC antiserum; Kd by nonlinear regression
[2] = target: α2A-L2^α1 mutant (loop 2 of α2A replaced by the loop 2 sequence of the integrin α1 A-domain) (human) (UniProt P17301); experiment: as above
[3] = target: α2A domain D219A mutant (human) (UniProt P17301); experiment: as above
[4] = target: α2A domain S214G mutant (human) (UniProt P17301); experiment: as above
[5] = target: α2A domain Y216G mutant (human) (UniProt P17301); experiment: as above
[6] = target: His6-tagged integrin α2A domain, wild type (human) (UniProt P17301); experiment: ELISA; His-tagged α2A domain (wt or mutant) coated on microtiter wells at 10 μg/ml in TBS/Mg pH 7.4; titrated with RCαβγδ or RCγδ without and with NPS-modified tryptophans in 1% BSA/TBS, 2 mM MgCl2, 1.5 h; bound RC fixed with glutaraldehyde and detected with rabbit RC antiserum, OD 405 nm; Kd by nonlinear regression
[7] = target: disulfide-locked α2A domain, “closed” conformation (C150A, C270A, K168C, A325C) (human) (UniProt P17301); experiment: as above
[8] = target: T1, rhodocetin heterotetramer (RCαβγδ); experiment: ELISA; settings: chain shown with the change; for percent of parent (% of wild type α2A): read at the highest rhodocetin concentration (about 70 nM), α2A captured by immobilized antibody JA218
T1 chain 1: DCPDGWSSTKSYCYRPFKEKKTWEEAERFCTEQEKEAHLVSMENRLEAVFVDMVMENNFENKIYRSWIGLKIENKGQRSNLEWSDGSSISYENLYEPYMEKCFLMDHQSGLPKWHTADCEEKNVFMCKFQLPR
T1 chain 2: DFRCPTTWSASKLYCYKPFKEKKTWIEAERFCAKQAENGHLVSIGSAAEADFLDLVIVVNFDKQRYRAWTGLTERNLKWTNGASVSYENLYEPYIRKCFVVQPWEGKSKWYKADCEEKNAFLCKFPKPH
T1 chain 3: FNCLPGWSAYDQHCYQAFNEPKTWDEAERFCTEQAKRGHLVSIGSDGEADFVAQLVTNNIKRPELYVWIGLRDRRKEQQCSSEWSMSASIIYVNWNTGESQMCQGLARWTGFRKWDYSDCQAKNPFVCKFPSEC
T1 chain 4: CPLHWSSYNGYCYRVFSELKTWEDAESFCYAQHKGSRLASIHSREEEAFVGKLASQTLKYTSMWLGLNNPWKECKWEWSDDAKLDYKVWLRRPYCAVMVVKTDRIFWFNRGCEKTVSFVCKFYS

Sequence of UniProt P17301 (P17301 142-337 Y216G): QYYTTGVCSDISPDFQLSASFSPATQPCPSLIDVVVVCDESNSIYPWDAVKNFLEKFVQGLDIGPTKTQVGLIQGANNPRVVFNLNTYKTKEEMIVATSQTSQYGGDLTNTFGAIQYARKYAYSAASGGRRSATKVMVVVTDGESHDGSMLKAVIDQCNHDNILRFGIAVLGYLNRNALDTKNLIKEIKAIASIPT

Q: Which Kd [1] does the source give for “rhodocetin heterotetramer (RCαβγδ) (complex)” here?
A: Its Kd is 0.76 nM.

Q: And the Kd [2]?
A: The Kd was 2.7 nM.

Q: And the Kd [3]?
A: Its Kd is 5.2 nM.

Q: And the Kd [4]?
A: The Kd was 0.77 nM.

Q: And the Kd [5]?
A: Its Kd is 1.98 nM.

Q: What about the Kd [6] of the same molecule?
A: The Kd was 0.29 nM.

Q: What about the Kd [7] of the same molecule?
A: The Kd was 0.21 nM.

B1: His6-tagged integrin α2A domain, wild type, P17301 C150A; C270A; K168C; E318C (protein)
chain: SLIDVVVVADESNSIYPWDAVKNFLECFVQGLDIGPTKTQVGLIQYANNPRVVFNLNTYKTKEEMIVATSQTSQYGGDLTNTFGAIQYARKYAYSAASGGRRSATKVMVVVTDGESHDGSMLKAVIDQANHDNILRFGIAVLGYLNRNALDTKNLIKEIKAIASIPTERYFFNVSDCAALLEKAGTLGEQIFSIEG
Q: What does the source list for B1?
A: response ([8]; read at the highest RCαβγδ concentration (about 23 nM), α2A immobilized at 10 μg/ml, parent: est. 2.6, read off a plot): 0.38 OD405nm; Kd ([8]; α2A immobilized to microtiter plates at 10 μg/ml, titrated with RCαβγδ, OD405): 2.64 nM

B2: His6-tagged integrin α2A domain, wild type, P17301 G218L (protein)
chain: B1 chain with A9C, C27K, G77L, A129C, C177E
Q: For B2, which percent of parent (% of wild type α2A) ([8]; read off a plot) is on record?
A: The percent of parent (% of wild type α2A) was 12.

B3: His6-tagged integrin α2A domain, wild type, P17301 G217K (protein)
chain: B1 chain with A9C, C27K, G76K, A129C, C177E
Q: B3 was tested. Which percent of parent (% of wild type α2A) ([8]; read off a plot) did it give?
A: The percent of parent (% of wild type α2A) was 11.

— publication PMC5509089
